The text below walks through data of article PMC11177981 (2024).

The labels stand for the following.
B1: FLAG-GLUT4 (human full length) expressed in HEK293T cells [human] / retinoic acid inducible gene I (RIG-I), endogenous in HEK293T cells [human (endogenous in HEK293T)] (parent complex)
chain 1: MPSGFQQIGSEDGEPPQQRVTGTLVLAVFSAVLGSLQFGYNIGVINAPQKVIEQSYNETWLGRQGPEGPSSIPPGTLTTLWALSVAIFSVGGMISSFLIGIISQWLGRKRAMLVNNVLAVLGGSLMGLANAAASYEMLILGRFLIGAYSGLTSGLVPMYVGEIAPTHLRGALGTLNQLAIVIGILIAQVLGLESLLGTASLWPLLLGLTVLPALLQLVLLPFCPESPRYLYIIQNLEGPARKSLKRLTGWADVSGVLAELKDEKRKLERERPLSLLQLLGSRTHRQPLIIAVVLQLSQQLSGINAVFYYSTSIFETAGVGQPAYATIGAGVVNTVFTLVSVLLVERAGRRTLHLLGLAGMCGCAILMTVALLLLERVPAMSYVSIVAIFGFVAFFEIGPGPIPWFIVAELFSQGPRPAAMAVAGFSNWTSNFIIGMGFQYVAEAMGPYVFLLFAVLLLGFFIFTFLRVPETRGRTFDQISAAFHRTPSLLEQEVKPSTELEYLGPDEND
chain 2: MTTEQRRSLQAFQDYIRKTLDPTYILSYMAPWFREEEVQYIQAEKNNKGPMEAATLFLKFLLELQEEGWFRGFLDALDHAGYSGLYEAIESWDFKKIEKLEEYRLLLKRLQPEFKTRIIPTDIISDLSECLINQECEEILQICSTKGMMAGAEKLVECLLRSDKENWPKTLKLALEKERNKFSELWIVEKGIKDVETEDLEDKMETSDIQIFYQEDPECQNLSENSCPPSEVSDTNLYSPFKPRNYQLELALPAMKGKNTIICAPTGCGKTFVSLLICEHHLKKFPQGQKGKVVFFANQIPVYEQQKSVFSKYFERHGYRVTGISGATAENVPVEQIVENNDIIILTPQILVNNLKKGTIPSLSIFTLMIFDECHNTSKQHPYNMIMFNYLDQKLGGSSGPLPQVIGLTASVGVGDAKNTDEALDYICKLCASLDASVIATVKHNLEELEQVVYKPQKFFRKVESRISDKFKYIIAQLMRDTESLAKRICKDLENLSQIQNREFGTQKYEQWIVTVQKACMVFQMPDKDEESRICKALFLYTSHLRKYNDALIISEHARMKDALDYLKDFFSNVRAAGFDEIEQDLTQRFEEKLQELESVSRDPSNENPKLEDLCFILQEEYHLNPETITILFVKTRALVDALKNWIEGNPKLSFLKPGILTGRGKTNQNTGMTLPAQKCILDAFKASGDHNILIATSVADEGIDIAQCNLVILYEYVGNVIKMIQTRGRGRARGSKCFLLTSNAGVIEKEQINMYKEKMMNDSILRLQTWDEAVFREKILHIQTHEKFIRDSQEKPKPVPDKENKKLLCRKCKALACYTADVRVIEECHYTVLGDAFKECFVSRPHPKPKQFSSFEKRAKIFCARQNCSHDWGIHVKYKTFEIPVIKIESFVVEDIATGVQTLYSKWKDFHFEKIPFDPAEMSK

The variants in this assay derive from B1. The assay is described as follows: co-IP (IP: FLAG) with immunoblot band densitometry; HEK293T cells; FLAG-GLUT4 plasmids, endogenous RIG-I; Vector, pcDNA3.1-FLAG; read off a plot. A general note: Immunoblotting shows a protein as a band on a membrane.
Take chain 1 MPSGFQQIGSEDGEPPQQRVTGTLVLAVFSAVLGSLQFGYNIGVINAPQKVIEQSYNETWLGRQGPEGPSSIPPGTLTTLWALSVAIFSVGGMISSFLIGIISQWLGRKRAMLVNNVLAVLGGSLMGLANAAASYEMLILGRFLIGAYSGLTSGLVPMYVGEIAPTHLAGALGTLNQLAIVIGILIAQVLGLESLLGTASLWPLLLGLTVLPALLQLVLLPFCPESPRYLYIIQNLEGPARKSLKRLTGWADVSGVLAELKDEKRKLERERPLSLLQLLGSRTHRQPLIIAVVLQLSQQLSGINAVFYYSTSIFETAGVGQPAYATIGAGVVNTVFTLVSVLLVERAGRRTLHLLGLAGMCGCAILMTVALLLLERVPAMSYVSIVAIFGFVAFFEIGPGPIPWFIVAELFSQGPRPAAMAVAGFSNWTSNFIIGMGFQYVAEAMGPYVFLLFAVLLLGFFIFTFLRVPETRGRTFDQISAAFHRTPSLLEQEVKPSTELEYLGPDEND [chain 1 R169A]: the response was ~1.1 band density ratio (RIG-I/GLUT4).
